Positions count from the first letter of the chain named. Blank lines part the entries; values can stand above or below the binder they belong to.
Target: S. cerevisiae RNA Polymerase II (Pol II) (S. cerevisiae) (UniProt P04050)

transcription stimulation with calf thymus DNA and yeast Pol II ([α-32P]CTP incorporation), against wild-type hNDF: 50 % reduction
B2: full-length hNDF mutant MT4 (residues 156–160) (natural protein)
chain: MAAVSLRLGDLVWGKLGRYPPWPGKIVNPPKDLKKPRGKKCFFVKFFGTEDHAWIKVEQLKPYHAHKEEMIKINKGKRFQQAVDAVEEFLRRAKGKDQTSSHNSSDDKNRRNSSEERSRPNSGDEKRKLSLSEGKVKKNMGEGKKRVSSGSSERGAAAAAKRAQEQSPRKRGRPPKDEKDLTIPESSTVKGMMAGPMAAFKWQPTASEPVKDADPHFHHFLLSQTEKPAVCYQAITKKLKICEEETGSTSIQAADSTAVNGSITPTDKKIGFLGLGLMGSGIVSNLLKMGHTVTVWNRTAEKCDLFIQEGARLGRTPAEVVSTCDITFACVSDPKAAKDLVLGPSGVLQGIRPGKCYVDMSTVDADTVTELAQVIVSRGGRFLEAPVSGNQQLSNDGMLVILAAGDRGLYEDCSSCFQAMGKTSFFLGEVGNAAKMMLIVNMVQGSFMATIAEGLTLAQVTGQSQQTLLDILNQGQLASIFLDQKCQNILQGNFKPDFYLKYIQKDLRLAIALGDAVNHPTPMAAAANEVYKRAKALDQSDNDMSAVYRAYIH

transcription stimulation with calf thymus DNA and yeast Pol II ([α-32P]CTP incorporation), against wild-type hNDF: 50 % reduction
B3: full-length hNDF mutant MT3 (natural protein)
chain: B2 chain with S151A, S152A, E153A, R154A, G155A, A156S, A157K, A158S, A159P, A160L

More lines, now with the values behind:

B1: full-length hNDF mutant MT1 (natural protein)
chain: B2 chain with G141A, E142A, G143A, K144A, K145A, A156S, A157K, A158S, A159P, A160L
transcription stimulation with calf thymus DNA and yeast Pol II ([α-32P]CTP incorporation), against wild-type hNDF: 50 % reduction

B4: full-length hNDF mutant MT2 (residues 146–150) (natural protein)
chain: B2 chain with R146A, V147A, S148A, S149A, G150A, A156S, A157K, A158S, A159P, A160L
transcription stimulation with calf thymus DNA and yeast Pol II ([α-32P]CTP incorporation), against wild-type hNDF: 50 % reduction
